Measurements reported in patent US11028172 (LEPU BIOPHARMA, dated 2021).

T1: human TIGIT-His protein (human, UniProt Q495A1 22-141)
T1 construct: Recombinant protein; also called human TIGIT-his tag; hTIGIT-His
T1 sequence (looked up): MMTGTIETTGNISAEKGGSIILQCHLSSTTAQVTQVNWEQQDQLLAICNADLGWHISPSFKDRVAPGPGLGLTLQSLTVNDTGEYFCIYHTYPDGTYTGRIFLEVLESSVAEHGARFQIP


Columns and labels:
human TIGIT-His protein [1] = target: T1, human TIGIT-His protein; test: SPR (Biacore) affinity ranking, human TIGIT-His
human TIGIT-His protein [2] = target: T1, human TIGIT-His protein; test: ELISA, plate coated with human TIGIT-His, anti-human IgG-HRP, OD 450nm; unit taken from the axis Log[Conc.]/ng/ml
Description: To evaluate the antigen binding activity, the humanized antibodies were subjected to ELISA test. Briefly, microtiter plates were coated with human TIGIT-his protein at 0.5 µg/ml in PBS, 100 µl/well at 4° C. overnight, then blocked with 150 µl/well of 1% BSA. Three-fold dilutions of humanized antibodies starting from 3 µg/ml were added to each well and incubated for 1 hour at 37° C. The plates were washed with PBS/Tween and then incubated with Goat-anti-human IgG antibody conjugated with Horse Radish Peroxidase (HRP) for 30 mins at 37° C. After washing, the plates were developed with TMB substrate and analyzed by spectrophotometer at OD 450 nm.

Row | Binder | Kd (human TIGIT-His protein [1]) [nM] | koff (human TIGIT-His protein [1]) [s⁻¹] | kon (human TIGIT-His protein [1]) [M⁻¹ s⁻¹] | EC50 (human TIGIT-His protein [2]) [ng/mL]
1 | 76D12B10-Hu08 (antibody, V domains shown, Humanized, VH.V3 + VK.V1) VH: EVQLQESGPGLVKPSETLSLTCAVSGYSISSGYDWHWIRQPPGKGLEWMGFIRDSGSTVYNPSLKGRITISHDTSKNQFSLKLSSVTAADTAVYYCARGLFWYFDVWGQGTTVTVSS VL: DIQMTQSPSSLSASVGDRVTITCRTSENIFSYLAWYQQKPGKVPKLLIHNTKTLAEGVPSRFSGSGSGTDFTLTISSLQPEDVATYYCQHHYGNPLTFGQGTKLEIK | 0.0192 | 9.73e-05 | 5.06e+06 | 9.54
2 | 76D12B10-Hu10 (antibody, V domains shown, Humanized, VH.V5 + VK.V1) VH: EVQLQESGPGLVKPSETLSLTCAASGYSITSGYDWHWIRQPPGKKLEWMGFIRDSGSTVYNPSLKGRITISHDTSKNQFSLKLSSVTAADTAVYFCARGLFWYFDVWGQGTTVTVSS VL: DIQMTQSPSSLSASVGDRVTITCRTSENIFSYLAWYQQKPGKVPKLLIHNTKTLAEGVPSRFSGSGSGTDFTLTISSLQPEDVATYYCQHHYGNPLTFGQGTKLEIK | 0.0266 | 9.79e-05 | 3.68e+06 | 4.01
3 | 76D12B10-Hu01 (antibody, V domains shown, Humanized, VH.V1 + VK.V0) VH: EVQLQESGPGLVKPSETLSLTCAVSGYSISSGYDWHWIRQPPGKGLEWIGFIRDSGSTVYNPSLKGRVTISHDTSKNQFSLKLSSVTAADTAVYYCARGLFWYFDVWGQGTTVTVSS VL: DIQMTQSPSSLSASVGDRVTITCRTSENIFSYLAWYQQKPGKVPKLLIYNTKTLAEGVPSRFSGSGSGTDFTLTISSLQPEDVATYYCQHHYGNPLTFGQGTKLEIK | 0.0701 | 0.000104 | 1.48e+06 | 9.89
4 | 76D12B10-Hu04 (antibody, V domains shown, Humanized, VH.V4 + VK.V0) VH: EVQLQESGPGLVKPSETLSLTCAASGYSITSGYDWHWIRQPPGKGLEWMGFIRDSGSTVYNPSLKGRITISHDTSKNQFSLKLSSVTAADTAVYYCARGLFWYFDVWGQGTTVTVSS VL: DIQMTQSPSSLSASVGDRVTITCRTSENIFSYLAWYQQKPGKVPKLLIYNTKTLAEGVPSRFSGSGSGTDFTLTISSLQPEDVATYYCQHHYGNPLTFGQGTKLEIK | 0.0191 | 9.85e-05 | 5.15e+06 | 9.96
5 | 76D12B10-Hu09 (antibody, V domains shown, Humanized, VH.V4 + VK.V1) VH: EVQLQESGPGLVKPSETLSLTCAASGYSITSGYDWHWIRQPPGKGLEWMGFIRDSGSTVYNPSLKGRITISHDTSKNQFSLKLSSVTAADTAVYYCARGLFWYFDVWGQGTTVTVSS VL: DIQMTQSPSSLSASVGDRVTITCRTSENIFSYLAWYQQKPGKVPKLLIHNTKTLAEGVPSRFSGSGSGTDFTLTISSLQPEDVATYYCQHHYGNPLTFGQGTKLEIK | 0.0139 | 0.000125 | 9.01e+06 | 4.95
6 | 76D12B10-Hu07 (antibody, V domains shown, Humanized, VH.V2 + VK.V1) VH: EVQLQESGPGLVKPSETLSLTCAVSGYSISSGYDWHWIRQPPGKGLEWIGFIRDSGSTVYNPSLKGRITISHDTSKNQFSLKLSSVTAADTAVYYCARGLFWYFDVWGQGTTVTVSS VL: DIQMTQSPSSLSASVGDRVTITCRTSENIFSYLAWYQQKPGKVPKLLIHNTKTLAEGVPSRFSGSGSGTDFTLTISSLQPEDVATYYCQHHYGNPLTFGQGTKLEIK | 0.0186 | 8.93e-05 | 4.8e+06 | 10.7
7 | 76D12B10-Hu03 (antibody, V domains shown, Humanized, VH.V3 + VK.V0) VH: EVQLQESGPGLVKPSETLSLTCAVSGYSISSGYDWHWIRQPPGKGLEWMGFIRDSGSTVYNPSLKGRITISHDTSKNQFSLKLSSVTAADTAVYYCARGLFWYFDVWGQGTTVTVSS VL: DIQMTQSPSSLSASVGDRVTITCRTSENIFSYLAWYQQKPGKVPKLLIYNTKTLAEGVPSRFSGSGSGTDFTLTISSLQPEDVATYYCQHHYGNPLTFGQGTKLEIK | 0.0143 | 0.00015 | 1.05e+07 | 10.6
8 | 76D12B10-Hu05 (antibody, V domains shown, Humanized, VH.V5 + VK.V0) VH: EVQLQESGPGLVKPSETLSLTCAASGYSITSGYDWHWIRQPPGKKLEWMGFIRDSGSTVYNPSLKGRITISHDTSKNQFSLKLSSVTAADTAVYFCARGLFWYFDVWGQGTTVTVSS VL: DIQMTQSPSSLSASVGDRVTITCRTSENIFSYLAWYQQKPGKVPKLLIYNTKTLAEGVPSRFSGSGSGTDFTLTISSLQPEDVATYYCQHHYGNPLTFGQGTKLEIK | 0.0165 | 9.75e-05 | 5.92e+06 | 10.1

Other lines, results leading:

Row | Kd (human TIGIT-His protein [1]) [nM] | koff (human TIGIT-His protein [1]) [s⁻¹] | kon (human TIGIT-His protein [1]) [M⁻¹ s⁻¹] | EC50 (human TIGIT-His protein [2]) [ng/mL] | Binder
9 | 0.0135 | 0.000105 | 7.76e+06 | 9.68 | 76D12B10-Hu15 (antibody, V domains shown, Humanized, VH.V5 + VK.V2) VH: EVQLQESGPGLVKPSETLSLTCAASGYSITSGYDWHWIRQPPGKKLEWMGFIRDSGSTVYNPSLKGRITISHDTSKNQFSLKLSSVTAADTAVYFCARGLFWYFDVWGQGTTVTVSS VL: DIQMTQSPSSLSASVGDRVTITCRTSENIFSYLAWYQQKPGKVPKLLVHNTKTLAEGVPSRFSGSGSGTDFTLTISSLQPEDVATYYCQHHYGNPLTFGQGTKLEIK
10 | 0.0255 | 9.21e-05 | 3.62e+06 | 7.09 | 76D12B10-Hu11 (antibody, V domains shown, Humanized, VH.V1 + VK.V2) VH: EVQLQESGPGLVKPSETLSLTCAVSGYSISSGYDWHWIRQPPGKGLEWIGFIRDSGSTVYNPSLKGRVTISHDTSKNQFSLKLSSVTAADTAVYYCARGLFWYFDVWGQGTTVTVSS VL: DIQMTQSPSSLSASVGDRVTITCRTSENIFSYLAWYQQKPGKVPKLLVHNTKTLAEGVPSRFSGSGSGTDFTLTISSLQPEDVATYYCQHHYGNPLTFGQGTKLEIK
11 | 0.0281 | 0.000128 | 4.54e+06 | 12.1 | 76D12B10-Hu13 (antibody, V domains shown, Humanized, VH.V3 + VK.V2) VH: EVQLQESGPGLVKPSETLSLTCAVSGYSISSGYDWHWIRQPPGKGLEWMGFIRDSGSTVYNPSLKGRITISHDTSKNQFSLKLSSVTAADTAVYYCARGLFWYFDVWGQGTTVTVSS VL: DIQMTQSPSSLSASVGDRVTITCRTSENIFSYLAWYQQKPGKVPKLLVHNTKTLAEGVPSRFSGSGSGTDFTLTISSLQPEDVATYYCQHHYGNPLTFGQGTKLEIK
12 | 0.0244 | 0.00014 | 5.75e+06 | 11.1 | 76D12B10-Hu12 (antibody, V domains shown, Humanized, VH.V2 + VK.V2) VH: EVQLQESGPGLVKPSETLSLTCAVSGYSISSGYDWHWIRQPPGKGLEWIGFIRDSGSTVYNPSLKGRITISHDTSKNQFSLKLSSVTAADTAVYYCARGLFWYFDVWGQGTTVTVSS VL: DIQMTQSPSSLSASVGDRVTITCRTSENIFSYLAWYQQKPGKVPKLLVHNTKTLAEGVPSRFSGSGSGTDFTLTISSLQPEDVATYYCQHHYGNPLTFGQGTKLEIK
13 | 0.0196 | 9.97e-05 | 5.09e+06 | 10.8 | 76D12B10-Hu14 (antibody, V domains shown, Humanized, VH.V4 + VK.V2) VH: EVQLQESGPGLVKPSETLSLTCAASGYSITSGYDWHWIRQPPGKGLEWMGFIRDSGSTVYNPSLKGRITISHDTSKNQFSLKLSSVTAADTAVYYCARGLFWYFDVWGQGTTVTVSS VL: DIQMTQSPSSLSASVGDRVTITCRTSENIFSYLAWYQQKPGKVPKLLVHNTKTLAEGVPSRFSGSGSGTDFTLTISSLQPEDVATYYCQHHYGNPLTFGQGTKLEIK
